Measurements from patent publication US11180770B2, “HPPD variants and methods of use” (BASF Agricultural Solutions Seed US LLC, priority 2017, dated 2021).

System: HPPD polypeptides
Assay: coupled HPPD activity assay: turnover and residual turnover in crude extracts
Assay type: biochemical, Pseudomonas fluorescens
Conditions: for Turnover: absence of Cmpd. 1, kinetic changes in absorbance (OD) at 320 nm, 30 min; for Turnover / Residual turnover: high substrate concentration; for Residual turnover: presence of 100 μM Cmpd. 1, changes in absorbance (OD) at 320 nm; for Residual turnover [%]: 100 μM Cmpd. 1, signal change with inhibitor divided by signal change without inhibitor

Molecule	Turnover	Residual turnover	Residual turnover [%]
15 (protein, mutant HPPD polypeptide) MADLYENPMGLMGFEFIEFASPTPGTLEPIFEIMGFTKVATHRSKNVHLYRQGEINLILNNEPNSIASYFAAEHGPSVCGMAFRVKDSQKAYNRALELGAQPIHIDTGPMELNLPAIKGIGGAPLYLIDRFGEGSSIYDIDFVYLEGVERNPVGAGLKVIDHLTHNVYRGRMVYWANFYEKLFNFREARYFDIKGEYTGLTSKAMSAPDGMIRIPLNEESSKGAGQIEEFLMQFNGEGIQHVAFLTDDLVKTWDALKKIGMRFMTAPRDNYYEMLEGRLPDHGEPVDQLQARGILLDGSSVEGDKRLLLQIFSETLMGPVFFEFIQRKGDDGFGPDSFKVLFESVERDQVRRGVLTAD	0.040	0.030	–
23 (protein, mutant HPPD polypeptide) MADLYENPMGLMGFEFIEFASPTPGTLEPIFEIMGFTKVATHRSKNVHLYRQGEINLILNNEPNSIASYFAAEHGPSVCGMAFRVKDSQKAYNRALELGAQPIHIDTGPMELNLPAIKGIGGAPLYLIDRFGEGSSIYDIDFVYLEGVERNPVGAGLKVIDHLTHNVYRGRMVYWANFYEKLFNFREARYFDIKGEYTGLTSKAMSAPDGMIRIPLNEESSKGAGQIEEFLMQFNGEGIQHVAFLTDDLVKTWDALKKIGMRFMTAPPDTYYEMLEGRLPDHGEPVDQLQARGILLDGSSVEGDKRLLLQIFSETLMGPVFFEFIQRKGDDGFGPDSFKVLFEQVERDQVRRGVLTAD	0.193	0.076	39
24 (protein, mutant HPPD polypeptide) MADLYENPMGLMGFEFIEFASPTPGTLEPIFEIMGFTKVATHRSKNVHLYRQGEINLILNNEPNSIASYFAAEHGPSVCGMAFRVKDSQKAYNRALELGAQPIHIDTGPMELNLPAIKGIGGAPLYLIDRFGEGSSIYDIDFVYLEGVERNPVGAGLKVIDHLTHNVYRGRMVYWANFYEKLFNFREARYFDIKGEYTGLTSKAMSAPDGMIRIPLNEESSKGAGQIEEFLMQFNGEGIQHVAFLTDDLVKTWDALKKIGMRFMTAPADTYYEMLEGRLPDHGEPVDQLQARGILLDGSSVEGDKRLLLQIFSETLMGPVFFEFIQRKGDDGFGPHSFKVLFESIERDQVRRGVLTAD	0.271	0.105	39
17 (protein, mutant HPPD polypeptide) MADLYENPMGLMGFEFIEFASPTPGTLEPIFEIMGFTKVATHRSKNVHLYRQGEINLILNNEPNSIASYFAAEHGPSVCGMAFRVKDSQKAYNRALELGAQPIHIDTGPMELNLPAIKGIGGAPLYLIDRFGEGSSIYDIDFVYLEGVERNPVGAGLKVIDHLTHNVYRGRMVYWANFYEKLFNFREARYFDIKGEYTGLTSKAMSAPDGMIRIPLNEESSKGAGQIEEFLMQFNGEGIQHVAFLTDDLVKTWDALKKIGMRFMTAPADEYYEMLEGRLPDHGEPVDQLQARGILLDGSSVEGDKRLLLQIFSETLMGPVFFEFIQRKGDDGFGPDSFKVLFESVERDQVRRGVLTAD	0.138	0.081	59
20 (protein, mutant HPPD polypeptide) MADLYENPMGLMGFEFIEFASPTPGTLEPIFEIMGFTKVATHRSKNVHLYRQGEINLILNNEPNSIASYFAAEHGPSVCGMAFRVKDSQKAYNRALELGAQPIHIDTGPMELNLPAIKGIGGAPLYLIDRFGEGSSIYDIDFVYLEGVERNPVGAGLKVIDHLTHNVYRGRMVYWANFYEKLFNFREARYFDIKGEYTGLTSKAMSAPDGMIRIPLNEESSKGAGQIEEFLMQFNGEGIQHVAFLTDDLVKTWDALKKIGMRFMTAPSDEYYEMLEGRLPDHGEPVDQLQARGILLDGSSVEGDKRLLLQIFSETLMGPVFFEFIQRKGDDGFGPDSFKVLFESVERDQVRRGVLTAD	0.199	0.105	53
18 (protein, mutant HPPD polypeptide) MADLYENPMGLMGFEFIEFASPTPGTLEPIFEIMGFTKVATHRSKNVHLYRQGEINLILNNEPNSIASYFAAEHGPSVCGMAFRVKDSQKAYNRALELGAQPIHIDTGPMELNLPAIKGIGGAPLYLIDRFGEGSSIYDIDFVYLEGVERNPVGAGLKVIDHLTHNVYRGRMVYWANFYEKLFNFREARYFDIKGEYTGLTSKAMSAPDGMIRIPLNEESSKGAGQIEEFLMQFNGEGIQHVAFLTDDLVKTWDALKKIGMRFMTAPPDEYYEMLEGRLPDHGEPVDQLQARGILLDGSSVEGDKRLLLQIFSETLMGPVFFEFIQRKGDDGFGPDSFKVLFESVERDQVRRGVLTAD	0.134	0.057	43
16 (protein, mutant HPPD polypeptide) MADLYENPMGLMGFEFIEFASPTPGTLEPIFEIMGFTKVATHRSKNVHLYRQGEINLILNNEPNSIASYFAAEHGPSVCGMAFRVKDSQKAYNRALELGAQPIHIDTGPMELNLPAIKGIGGAPLYLIDRFGEGSSIYDIDFVYLEGVERNPVGAGLKVIDHLTHNVYRGRMVYWANFYEKLFNFREARYFDIKGEYTGLTSKAMSAPDGMIRIPLNEESSKGAGQIEEFLMQFNGEGIQHVAFLTDDLVKTWDALKKIGMRFMTAPSDNYYEMLEGRLPDHGEPVDQLQARGILLDGSSVEGDKRLLLQIFSETLMGPVFFEFIQRKGDDGFGPDSFKVLFESVERDQVRRGVLTAD	0.181	0.083	46
22 (protein, mutant HPPD polypeptide) MADLYENPMGLMGFEFIEFASPTPGTLEPIFEIMGFTKVATHRSKNVHLYRQGEINLILNNEPNSIASYFAAEHGPSVCGMAFRVKDSQKAYNRALELGAQPIHIDTGPMELNLPAIKGIGGAPLYLIDRFGEGSSIYDIDFVYLEGVERNPVGAGLKVIDHLTHNVYRGRMVYWANFYEKLFNFREARYFDIKGEYTGLTSKAMSAPDGMIRIPLNEESSKGAGQIEEFLMQFNGEGIQHVAFLTDDLVKTWDALKKIGMRFMTAPGDTYYEMLEGRLPDHGEPVDQLQARGILLDGSSVEGDKRLLLQIFSETLMGPVFFEFIQRKGDDGFGPDSFKVLFEQVERDQVRRGVLTAD	0.132	0.062	47
26 (protein, mutant HPPD polypeptide) MADLYENPMGLMGFEFIEFASPTPGTLEPIFEIMGFTKVATHRSKNVHLYRQGEINLILNNEPNSIASYFAAEHGPSVCGMAFRVKDSQKAYNRALELGAQPIHIDTGPMELNLPAIKGIGGAPLYLIDRFGEGSSIYDIDFVYLEGVERNPVGAGLKVIDHLTHNVYRGRMVYWANFYEKLFNFREARYFDIKGEYTGLTSKAMSAPDGMIRIPLNEESSKGAGQIEEFLMQFNGEGIQHVAFLTDDLVKTWDALKKIGMRFMTAPPDTYYEMLEGRLPDHGEPVDQLQARGILLDGSSVEGDKRLLLQIFSETLMGPVFFEFIQRKGDDGFGPHSFKVLFESIERDQVRRGVLTAD	0.279	0.077	28
27 (protein, mutant HPPD polypeptide) MADLYENPMGLMGFEFIEFASPTPGTLEPIFEIMGFTKVATHRSKNVHLYRQGEINLILNNEPNSIASYFAAEHGPSVCGMAFRVKDSQKAYNRALELGAQPIHIDTGPMELNLPAIKGIGGAPLYLIDRFGEGSSIYDIDFVYLEGVERNPVGAGLKVIDHLTHNVYRGRMVYWANFYEKLFNFREARYFDIKGEYTGLTSKAMSAPDGMIRIPLNEESSKGAGQIEEFLMQFNGEGIQHVAFLTDDLVKTWDALKKIGMRFMTAPADNYYEMLEGRLPDHGEPVDQLQARGILLDGSSVEGDKRLLLQIFSETLMGPVFFEFIQRKGDDGFGPHSFKVLFESIERDQVRRGVLTAD	0.266	0.101	38
25 (protein, mutant HPPD polypeptide) MADLYENPMGLMGFEFIEFASPTPGTLEPIFEIMGFTKVATHRSKNVHLYRQGEINLILNNEPNSIASYFAAEHGPSVCGMAFRVKDSQKAYNRALELGAQPIHIDTGPMELNLPAIKGIGGAPLYLIDRFGEGSSIYDIDFVYLEGVERNPVGAGLKVIDHLTHNVYRGRMVYWANFYEKLFNFREARYFDIKGEYTGLTSKAMSAPDGMIRIPLNEESSKGAGQIEEFLMQFNGEGIQHVAFLTDDLVKTWDALKKIGMRFMTAPGDTYYEMLEGRLPDHGEPVDQLQARGILLDGSSVEGDKRLLLQIFSETLMGPVFFEFIQRKGDDGFGPHSFKVLFESIERDQVRRGVLTAD	0.215	0.083	39
21 (protein, mutant HPPD polypeptide) MADLYENPMGLMGFEFIEFASPTPGTLEPIFEIMGFTKVATHRSKNVHLYRQGEINLILNNEPNSIASYFAAEHGPSVCGMAFRVKDSQKAYNRALELGAQPIHIDTGPMELNLPAIKGIGGAPLYLIDRFGEGSSIYDIDFVYLEGVERNPVGAGLKVIDHLTHNVYRGRMVYWANFYEKLFNFREARYFDIKGEYTGLTSKAMSAPDGMIRIPLNEESSKGAGQIEEFLMQFNGEGIQHVAFLTDDLVKTWDALKKIGMRFMTAPADTYYEMLEGRLPDHGEPVDQLQARGILLDGSSVEGDKRLLLQIFSETLMGPVFFEFIQRKGDDGFGPDSFKVLFEQVERDQVRRGVLTAD	0.157	0.080	51
19 (protein, mutant HPPD polypeptide) MADLYENPMGLMGFEFIEFASPTPGTLEPIFEIMGFTKVATHRSKNVHLYRQGEINLILNNEPNSIASYFAAEHGPSVCGMAFRVKDSQKAYNRALELGAQPIHIDTGPMELNLPAIKGIGGAPLYLIDRFGEGSSIYDIDFVYLEGVERNPVGAGLKVIDHLTHNVYRGRMVYWANFYEKLFNFREARYFDIKGEYTGLTSKAMSAPDGMIRIPLNEESSKGAGQIEEFLMQFNGEGIQHVAFLTDDLVKTWDALKKIGMRFMTAPRDEYYEMLEGRLPDHGEPVDQLQARGILLDGSSVEGDKRLLLQIFSETLMGPVFFEFIQRKGDDGFGPDSFKVLFESVERDQVRRGVLTAD	0.141	0.063	45
